According to the MegaScale stability set (Tsuboyama et al. 2023):

B1: EEHEE_rd4_0763 (parent)
chain: LTVHVGNVTYHFDNPEQAEEWAKRMAKKYQGQIHVKDGQFRIE

Variants of: B1
Experiment: folding stability dG (cDNA display proteolysis); higher = more stable
Conditions: PBS, room temperature

Row | Variant | folding stability dG
1 | LTVHVGNVTNHFDNPEQAEEWAKRMAKKYQGQIHVKDGQFRIE [Y10N] | 0.565 kJ/mol
2 | LTVHVGNVTCHFDNPEQAEEWAKRMAKKYQGQIHVKDGQFRIE [Y10C] | 7.42 kJ/mol
3 | LTVHVGNVTIHFDNPEQAEEWAKRMAKKYQGQIHVKDGQFRIE [Y10I] | 4.09 kJ/mol
4 | LTVHVGNVTYHFDNPEQAEEWAKRMAHKYQGQIHVKDGQFRIE [K27H] | 6.4 kJ/mol
5 | LTVHVGNVTYHFDNPEQAEEWAKRMAGKYQGQIHVKDGQFRIE [K27G] | 4.73 kJ/mol
6 | LTDHVGNVTYHFDNPEQAEEWAKRMAKKYQGQIHVKDGQFRIE [V3D] | 0.791 kJ/mol
7 | LTHHVGNVTYHFDNPEQAEEWAKRMAKKYQGQIHVKDGQFRIE [V3H] | 1.89 kJ/mol
8 | LTNHVGNVTYHFDNPEQAEEWAKRMAKKYQGQIHVKDGQFRIE [V3N] | 1.02 kJ/mol
9 | LTVHVGNVTYHFDNPEQAEEWAKRMAKKQQGQIHVKDGQFRIE [Y29Q] | 2.91 kJ/mol
10 | LTVHVGNVTYHFDNPEQAEEWAKRMAKKDQGQIHVKDGQFRIE [Y29D] | 2.08 kJ/mol
11 | LTVHVGNVTYHFDNPEQAEEWAKRMAKKLQGQIHVKDGQFRIE [Y29L] | 7.03 kJ/mol
12 | LTVHVGNVTYHFDNPEQAEEWAKRMAKKAQGQIHVKDGQFRIE [Y29A] | 3.19 kJ/mol
13 | LTVHVGNVTYHFDNPEQAEEWAKRMAKKWQGQIHVKDGQFRIE [Y29W] | 6.73 kJ/mol
14 | LTVHVGNVTYSFDNPEQAEEWAKRMAKKYQGQIHVKDGQFRIE [H11S] | 5.97 kJ/mol
15 | LTVHVGNVTYMFDNPEQAEEWAKRMAKKYQGQIHVKDGQFRIE [H11M] | 6.25 kJ/mol
16 | LAVHVGNVTYHFDNPEQAEEWAKRMAKKYQGQIHVKDGQFRIE [T2A] | 6.33 kJ/mol
17 | LPVHVGNVTYHFDNPEQAEEWAKRMAKKYQGQIHVKDGQFRIE [T2P] | 2.25 kJ/mol
18 | LQVHVGNVTYHFDNPEQAEEWAKRMAKKYQGQIHVKDGQFRIE [T2Q] | 6.38 kJ/mol
19 | LYVHVGNVTYHFDNPEQAEEWAKRMAKKYQGQIHVKDGQFRIE [T2Y] | 6.66 kJ/mol
20 | LIVHVGNVTYHFDNPEQAEEWAKRMAKKYQGQIHVKDGQFRIE [T2I] | 6.65 kJ/mol

Row | Variant | folding stability dG
21 | LTVHVGNVTYHFDNPEQAEEWAKRMAKKYQGQIHVKDGHFRIE [Q39H] | 7.38 kJ/mol
22 | LTVHVGNVTYHFDNPEQAEEWAKRMAKKYQGQIHVKDGYFRIE [Q39Y] | 5.73 kJ/mol
23 | LTVHVGNVTYHFDNPEQAEEWAKRMAKKYQGQIHVKDGDFRIE [Q39D] | 6.82 kJ/mol
24 | LTVHVGNVTYHFDNQEQAEEWAKRMAKKYQGQIHVKDGQFRIE [P15Q] | 6.69 kJ/mol
25 | LTVHVGNVTYHFDNAEQAEEWAKRMAKKYQGQIHVKDGQFRIE [P15A] | 7.12 kJ/mol
26 | LTVHVGNVTYHFDNHEQAEEWAKRMAKKYQGQIHVKDGQFRIE [P15H] | 7.12 kJ/mol
27 | LTVHVGNVTYHFDNYEQAEEWAKRMAKKYQGQIHVKDGQFRIE [P15Y] | 9.08 kJ/mol
28 | LTVHVGNVTYHFDNNEQAEEWAKRMAKKYQGQIHVKDGQFRIE [P15N] | 5.77 kJ/mol
29 | LTVHVGNVTYHFDNDEQAEEWAKRMAKKYQGQIHVKDGQFRIE [P15D] | 4.89 kJ/mol
30 | LTVHVGNVTYHFDNPEQAEEWAKRMAKKYQGQIHVKDGQFRIL [E43L] | 7.38 kJ/mol
31 | LTVHVGNVTYHFDNPEQAEEWAKRMAKKYQGQIHVKDGQFRIP [E43P] | 4.82 kJ/mol
32 | LTVHVGNVTYHFDNPEQAEEWAKRFAKKYQGQIHVKDGQFRIE [M25F] | 5.95 kJ/mol
33 | LTVHVMNVTYHFDNPEQAEEWAKRMAKKYQGQIHVKDGQFRIE [G6M] | 6.31 kJ/mol
34 | LTVHVGWVTYHFDNPEQAEEWAKRMAKKYQGQIHVKDGQFRIE [N7W] | 6.91 kJ/mol
35 | LTVHVGDVTYHFDNPEQAEEWAKRMAKKYQGQIHVKDGQFRIE [N7D] | 5.89 kJ/mol
36 | LTVHVGMVTYHFDNPEQAEEWAKRMAKKYQGQIHVKDGQFRIE [N7M] | 6.55 kJ/mol
37 | LTVHVGNVTYHFDNPEQAEEWAPRMAKKYQGQIHVKDGQFRIE [K23P] | -1.72 kJ/mol
38 | LTVHVGNVTYHFDNPERAEEWAKRMAKKYQGQIHVKDGQFRIE [Q17R] | 6.57 kJ/mol
39 | LTVHVGNVTYHFDNPEEAEEWAKRMAKKYQGQIHVKDGQFRIE [Q17E] | 7.69 kJ/mol
40 | LTVHVGNVTYHFDNPEAAEEWAKRMAKKYQGQIHVKDGQFRIE [Q17A] | 7.65 kJ/mol

Row | Variant | folding stability dG
41 | LTVHVGNWTYHFDNPEQAEEWAKRMAKKYQGQIHVKDGQFRIE [V8W] | 7.56 kJ/mol
42 | LTVHVGNCTYHFDNPEQAEEWAKRMAKKYQGQIHVKDGQFRIE [V8C] | 12.7 kJ/mol
43 | LTVHVGNETYHFDNPEQAEEWAKRMAKKYQGQIHVKDGQFRIE [V8E] | 5.68 kJ/mol
44 | LTVHVGNVTYHFSNPEQAEEWAKRMAKKYQGQIHVKDGQFRIE [D13S] | 7.11 kJ/mol
45 | LTVHVGNVTYHFWNPEQAEEWAKRMAKKYQGQIHVKDGQFRIE [D13W] | 5.84 kJ/mol
46 | LTVHVGNVTYHFLNPEQAEEWAKRMAKKYQGQIHVKDGQFRIE [D13L] | 6.33 kJ/mol
47 | LTVHVGNVTYHFQNPEQAEEWAKRMAKKYQGQIHVKDGQFRIE [D13Q] | 6.56 kJ/mol
48 | LTVHVGNVTYHFDNPEQAEEWAKRMAKKYQGQIHVKDNQFRIE [G38N] | 5.69 kJ/mol
49 | LTVHVGNVTYHFDNPEQAEEWAKRMAKKYQGQIHVKDMQFRIE [G38M] | 3.81 kJ/mol
50 | LTVHVGNVTYHFDNPEQAEEWAKRMAKNYQGQIHVKDGQFRIE [K28N] | 3.44 kJ/mol
51 | LTVHVGNVTYHFDNPEQAEEWAKRMAKEYQGQIHVKDGQFRIE [K28E] | 5.72 kJ/mol
52 | LTVHVGNVTYHFDNPEQAEEWAKRMAKCYQGQIHVKDGQFRIE [K28C] | 10.8 kJ/mol
53 | LTVHVGNVTYHFDNPEQAEEWAKRMAKAYQGQIHVKDGQFRIE [K28A] | 5.16 kJ/mol
54 | LTVHVGNVTYHFDNPEQAEEKAKRMAKKYQGQIHVKDGQFRIE [W21K] | -1.03 kJ/mol
55 | LTVHVGNVTYHFDNPEQAEEGAKRMAKKYQGQIHVKDGQFRIE [W21G] | 0.0335 kJ/mol
56 | LTVHVGNVTYHFDNPEQAEEHAKRMAKKYQGQIHVKDGQFRIE [W21H] | 2.91 kJ/mol
57 | LTVHVGNVTYHFDIPEQAEEWAKRMAKKYQGQIHVKDGQFRIE [N14I] | 6.24 kJ/mol
58 | LTVHVGNVTYHFDYPEQAEEWAKRMAKKYQGQIHVKDGQFRIE [N14Y] | 5.99 kJ/mol
59 | LTVHVGNVTYHFDDPEQAEEWAKRMAKKYQGQIHVKDGQFRIE [N14D] | 7.56 kJ/mol
